{"source": "patent US20020137904A1", "biological_target": "rabbit anti-CS197 peptide antiserum raised against unconjugated peptide SEQUENCE ID NO 19", "experiment": "Western blot competition; antiserum pre-incubated overnight with peptide immunogen"}
{"binder": "LPGTKAWMETEDTLGRVLSPEPDHDSLYHPPPEED", "note": "[CS 197 synthetic peptide SEQUENCE ID NO 19]", "values": [{"measurement": "concentration of peptide immunogen that inhibited antibody binding to the blot bands", "value": 2.5, "unit": "FM"}]}
